These results are taken from patent US20190144553A1 (published 2019).

The target in the experiment is T1, WT hTNF (wild type human TNF-α, N-terminal 6×His tag) (human, UniProt P01375 77-233).
T1 construct: also called His-TNF
The experiment in a line: BLI (Octet RED96), His-tagged hTNF on HIS1K biosensor, soluble receptor in solution, global 1:1 fit. As for the experimental part: KD values were calculated using global fitting with a 1:1 model (R²≥0.95).

T1 sequence (P01375 other isoform, or with tags, fused parts or gaps limits assumed): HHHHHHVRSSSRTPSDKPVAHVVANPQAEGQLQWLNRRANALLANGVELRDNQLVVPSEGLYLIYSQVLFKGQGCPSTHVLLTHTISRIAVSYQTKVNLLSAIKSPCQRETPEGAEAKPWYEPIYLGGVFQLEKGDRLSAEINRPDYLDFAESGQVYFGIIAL

B1: soluble hTNF-R1 (Peprotech) (receptor, human, UniProt P19438 41-201, looked up)
chain: DSVCPQGKYIHPQNNSICCTKCHKGTYLYNDCPGPGQDTDCRECESGSFTASENHLRHCLSCSKCRKEMGQVEISSCTVDRDTVCGCRKNQYRHYWSENLFQCFNCSLCLNGTVHLSCQEKQNTVCTCHAGFFLRENECVSCSNCKKSLECTKLCLPQIEN
notes: Bought soluble receptor used as analyte in the Octet assay; also called p55
As to B1, binding was put at a Kd of 10.2 nM.
